Among the data in a protein production outcome set (Wang et al. 2014) are protein production values, retold here.

This data set in a line: label from the status in PepcDB records.
For “MSTDEERIYSIALTQIPGVGHIGAKRLVDGMGSATDVFRYRTELPDRLPGVNRAVVAALDSPQALKRAEQEYEFARNNRISCFTLADEDYPSRLRECDDAPVVLFFKGKANLNALHIINMVGTRNATDYGKHICVSFLQELQMLCPDVLVVSGLAYGIDINAHRSALSVELPTVGVLAHGLDRIYPSLHRKTAIDMLRQGGLLTEFLSGTNPDKHNFISRNRIVAGISDATIVVESAAKGGSLITADIAGSYHRDCFAFPGRVTDEYSKGCNQLIQDNKAVLLESASDFVKTMGWDSDLKSVKPETVQRNLFPDLSAEELRIVDILGKLGDLQINALMVQADIPINKISAILFELEMKGVIRVLAGGVYQLLR”, the protein production entry was “failed”.

For the sequence “MSLLESIAVVINLLGVWLTARRIRWCWPVGIVAVALYAWLFYQWKLYSDMLLQGVYVLTQLYGWWHWQPGTAADTRIRPLPMPSAERWLSLGIGAAFAATLGAYMHYRTDAVLPWLDAALASFSLVASVWAARKRIANWVLWIVLDCVYVGVFISKGLYPTAVLYAGFVALAVYGWHSWKTQQNQNLAVAR”, the protein production result is “failed”. Turning to “MTEKFGAKSTADEVLSGVDLRGKRFLITGVSSGIGLETARALVAHGASVVGAVRDRAKAERATASVRDAASQGGGTLELTELDLASLQSIRACADRLLADGRRFDSIIANAGVMATPFARTADGFELQFGTNHLGHFALVNRIASLLADNGRLVVLSSQAHRVADVDLDDPNFERQAYDPWVAYGRSKTATSLFAAEFDKRHRDRGIRAASVMPGNSLTDLPRHLRQEDLQGLFETVGKARAEAGLPPAELKDIPQVAATSVWAAVVADKDEIGGHYLDDCAVAPINDTPNPFADGVRSYALDADKAKRLWAKSEEWIGANTAAI”, the protein production result is reported as “failed”. For “MTAFYLLVPFLFIRFIFLSLLDRKATGRAAHFASMQGKEIIAYYLYQLSTLMLLIVPFFLKVSLHFSSFFYLGLGAYLLGSVLLFLVIKDFANPDEKGLNTKGLYALSRHPMYIAYFVLFLGVAMLTQSLTLLIFLAIFQLSAHFIILAEERECLIKFGAAYQEYQKRVRMYL”, the protein production entry was “failed”.

Regarding “MDEIESLIGLRPTPLTWPVVIAGDFLGVWDPPPSLPGAANHEISAPTARISCMLIERRDAAARLRRALHRAPVVLLTGPRQAGKTTLSRLVGKSAPECTFDAENPVDATRLADPMLALSGLSGLITIDEAQRIPDLFPVLRVLVDRPVMPARFLILGSASPDLVGLASESLAGRVELVELSGLTVRDVGSSAADRLWLRGGLPPSFTARSNEDSAAWRDGYITTFLERDLAQLGVRIPAATMRRAWTMLAHYHGQLFSGAELARSLDVAQTTARRYLDALTDALVVRQLTPWFANIGKRQRRSPKIYIRDTGLLHRLLGIDDRLALERNPKLGASWEGFVLEQLAALLAPNPLYYWRTQQDAELDLYVELSGRPYGFEIKRTSTPSISRSMRSALVDLQLARLAIVYPGEHRFPLSDTVVAVPADQILTTGSVDELLALLK”, the protein production result was “failed”.

For “MAKKKIVAVIQARMGSSRLPGKVLMTVAGKPLLEHIIDRLRRSRTLDDIVIATSDKPCDDPLVDFAQTRGVTLVRGSEDNVLLRFNKAAEEVDADVIIRVTGDAPLVDPEVMDRLVRTLLQEGAEYCTIEAGINSIHEGFCTFTRGALKRLMTEAPDDPVAIEHVTAYFIAHPDKFHIARIPVGNEHRFKGARLSVDTPADVQFFDELYRLLGVPAGDADIADVVRLLRNNPHLLQINQHVYQKKATDRSHKVLIRCDGDSRTGLGHVVRCLALAGELREKQGCGIIFAMASGEPGMKMVRQADFPLERQEDADEGEWMDGLISRHHPDVLILDIRNDLPVEKVDSWREDGILVVGIDDPTPRRLAADLLFYPPIPQISELNWNNFNGEICSGWEWVLLRKQFCAPCPPRNNNPPALLLTMGGSDPANFTVRVLRVLDELQNDFETIVVIGAGFVHEEDLQQFLSQARRHYRIEREVSDMASLMRQADLAIASFGVTAYELAASGVPAVYLCLTPDHARSASKFVDDRLAFSCGVLEECSNERIIESTLSLLDSRELRHEVGRRACATVDGYGATRIATKIVEKLERMHSSHGLEHHHHHH”, the protein production result was “failed”. For “MIIRIKHYGEVKIEDSKNLLLNLIENRIGIDNICNGKGTCGKCKVRFRQGVPEATSADLRYLSVEELEEGVRLACQVKPQKGMEIDVTLSNSFDRKNTVLRRDDQVALDSGLSGISLTIPQPSLEDERGDWDRIIDEYRKVMPEQGLALPSLGVLERLPGTLRKLDYRITAVTWQNRVIDVQPGHDTALHGLAVDIGTTSVAVALIDLKTGEVLGSVSAENGQTAFGGDVISRIAYAGEGLKNRLQLTAAVRSTINTLIDELVLQHEIVRNSIYKMTIVANTTMSHLFLGLDVSNLAVSPYVSVYNQALEFSAKELGLGSNPEAVVQILPNIGSFVGGDTVGALLGAPEVLTQGNHLLLDLGTNCELVLKTEKMMLACSTAAGPAFEGAGIFHGMRAKPGAIEGIRIHEEGVELRVIGDEEALGICGSGLIDGIAQMRQAGIINRKGAFVDPDHKDCSLSDELKSRIRKKEDYWEFVFAFGRQHKKDISLGQRDIEALQLAKGAVCAGIKTLVSLAGISLRDLDSIVMAGTFATYLKKESILSIGLTPHTDPEKIKMAGNAAHLGAIRTLLNQGTFAEGAELARRIQHIELGGDKTFTNFFMRSMYLEPTD” the value was “failed”; for “MKSIYYLSADDLFQMNTFLIQTYSPAEQIGIKDRNALEMASNQPAQFVFDVDLYPTIEEKAAILMINIATKHCFYNANKRTAVMATDLFLQLNGYDFQLDTQEGVDLLVFIATYRSDFDQLKNDVSKVIRAKLNHTSSHLEHHHHHH”, “not failed”. “MPKLDLDSIERRIGSVYPGRLNAAMDGRSSLRLGDAGGLSQFGVNLVRLEPGAKSSLRHYHMEQDEFVMVTEGALVLVDDQGEHPMVPGDCAAFPAGDPNGHQFVNRTDAPATFLVVGTRTPTETAYYSDMDMMVKQDASGFAFTRKDGSPLTADQIGDDNE”: the protein production result is recorded as “not failed”. With “MKTESTGKALMVLGCPESPVQIPLAIYTSHKLKKKGFRVTVTANPAALRLVQVADPEGIYTDEMVDLESCINELAEGDYEFLAGFVPNDAAAAYLVTFAGILNTETLAIIFDRDADVLEELVNEIMETLDAEIIAARAHHNPAPLRVRIDRFMEEKP”, the protein production result was “not failed”. Then “MPDYDLIAILGPTASGKTPFAAALAAELNTEIISADSRQIYRGMDLGTGKDLEDYTINGRQIPYHLIDIADPGYKYNVFEYQRDFLTAYETIKQKGCLPVLCGGTGLYLESVLKGYRLIPVPENQELRVRLAEKSLEELTAILSSYKTLHNSTDVDTVKRAIRAIEIEEYYAKTPIEEREFPQLNSLIIGVDIDRELRREKITRRLKQRLDDGMVEEVRRLLAEGIQPDDLIYYGLEYKYLTLYAIGKMTYDEMFTGLETAIHQFAKRQMTWFRGMERRGFTIHWVDASLPMEEKINFVKQKLKEFLEHHHHHH”, with “not failed”; and “MAYSPSLNDIKSILNKYTSKDYELKCENRYDGKLELWLKGVFEEIVKTPGTRYVTHKQLDEKLKNFVTKTEFKEFQTVVMESFAVQNQNIDAQGEQIKELQVEQKAQGKTLQLILEALQGINKRLDNLESK”, with “failed”. Take “MTDARPHLRLRLARPEDMPALSALMDRAIGELLQDFLPPEGVKASYEIMGLDTQLIADGTYFVVEDGAAIAGCGGWSRRATLFGGDHSAGRDAALLDPKTDAARVRAMYTHPDHTRKGVGRIILDACEAAARAEGFSSVEMAATMGGVPLYRACGYHDIEPFEAVTSTGYRVPLIRMGKAL”: the protein production result is on record as “failed”. Take “MAGGVDGPIGIPFPDHSSDILSGLNEQRTQGLLCDVVILVEGREFPTHRSVLAACSQYFKKLFTSGAVVDQQNVYEIDFVSAEALTALMDFAYTATLTVSTANVGDILSAARLLEIPAVSHVCADLLDRQIL”: the protein production result is “failed”. Take “MSSEEDKITRISIEPEKQTLLDHHTEKHFTAGEIVRDIIIGVSDGLTVPFALAAGLSGANASSSIVLTAGIAEVAAGAISMGLGGYLAAKSEEDHYAREMKREQEEIVAVPETEAAEVAEILAQYGIEPHEYSPVVNALRKNPQAWLDFMMRFELGLEKPDPKRALQSAFTIAIAYVLGGFIPLLPYMLIPHAMDAVVASVVITLFALFIFGYAKGHFTGSKPLRSAFETAFIGAIASAAAFCLAKVVQH”: the protein production result was “failed”.
